Results taken from article doi:10.1101/2021.03.09.434581.
Values joined by “and” are separate entries in the source; they are usually repeats but may differ in a detail not shown here. Equal values may be shown once.

Experiments:
[1] = molecular target: Vibrio cholerae ParD2 N-terminal domain as found in the crystal (Vibrio cholerae); assay: crystal structure
[2] = molecular target: Vibrio cholerae ParD2 antitoxin, full length (Vibrio cholerae); assay: SEC-MALS
[3] = molecular target: Vibrio cholerae ParD2 antitoxin, full length (Vibrio cholerae); assay: SEC-SAXS

| Substance | stoichiometry N [1] | stoichiometry N [2] | stoichiometry N [3] |
| --- | --- | --- | --- |
| Vibrio cholerae ParD2 N-terminal domain as found in the crystal (domain or fragment) | 16 |  |  |
| Vibrio cholerae ParD2 antitoxin, full length (natural protein) |  | 10 and 12 and 8 | 12 |
